Publication PMC12363564, “Modulation of the PTPRS proteoglycan switch by antibodies binding to the membrane-proximal fibronectin-type III domain” (The Journal of Biological Chemistry, 2025)

T1: C-terminally 6xHis tagged mouse PTPRS (mPTPRS) ECD (mouse, UniProt B0V2N1 30-1257)
T1 chain: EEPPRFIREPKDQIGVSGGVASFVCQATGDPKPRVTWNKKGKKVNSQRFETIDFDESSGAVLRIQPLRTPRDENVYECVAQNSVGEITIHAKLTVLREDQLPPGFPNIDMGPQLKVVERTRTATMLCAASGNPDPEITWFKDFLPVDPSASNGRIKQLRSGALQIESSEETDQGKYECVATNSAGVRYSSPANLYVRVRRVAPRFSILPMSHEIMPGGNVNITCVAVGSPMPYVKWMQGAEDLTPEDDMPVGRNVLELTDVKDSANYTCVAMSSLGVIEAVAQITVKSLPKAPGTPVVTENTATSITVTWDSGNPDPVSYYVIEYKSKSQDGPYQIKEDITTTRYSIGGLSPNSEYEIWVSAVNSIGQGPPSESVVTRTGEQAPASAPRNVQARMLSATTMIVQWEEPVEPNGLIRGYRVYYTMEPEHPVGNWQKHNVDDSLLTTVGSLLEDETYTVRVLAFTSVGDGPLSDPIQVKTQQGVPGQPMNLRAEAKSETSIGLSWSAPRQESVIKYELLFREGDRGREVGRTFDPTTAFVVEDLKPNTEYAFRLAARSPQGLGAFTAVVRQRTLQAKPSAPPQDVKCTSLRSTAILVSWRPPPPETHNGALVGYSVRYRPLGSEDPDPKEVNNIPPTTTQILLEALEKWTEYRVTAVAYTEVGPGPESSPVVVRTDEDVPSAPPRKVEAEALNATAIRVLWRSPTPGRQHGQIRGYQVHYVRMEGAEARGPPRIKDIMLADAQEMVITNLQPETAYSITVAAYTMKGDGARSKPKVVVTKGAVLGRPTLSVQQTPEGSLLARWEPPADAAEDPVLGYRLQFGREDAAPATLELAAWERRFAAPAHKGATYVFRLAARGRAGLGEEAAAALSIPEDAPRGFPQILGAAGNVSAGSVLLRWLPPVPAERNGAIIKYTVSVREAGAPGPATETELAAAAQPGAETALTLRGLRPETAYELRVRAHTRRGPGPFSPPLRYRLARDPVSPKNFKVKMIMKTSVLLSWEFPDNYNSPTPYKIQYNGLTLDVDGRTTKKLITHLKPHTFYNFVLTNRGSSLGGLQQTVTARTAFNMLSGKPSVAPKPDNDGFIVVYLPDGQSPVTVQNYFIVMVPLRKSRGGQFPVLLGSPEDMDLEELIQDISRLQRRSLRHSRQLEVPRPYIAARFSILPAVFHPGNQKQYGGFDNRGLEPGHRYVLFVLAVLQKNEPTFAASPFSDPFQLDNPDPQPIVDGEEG

T2: 6xHis-tagged hPTPRS Fn9 (residues 1117-1270) (human, UniProt Q13332 1117-1270)
T2 chain: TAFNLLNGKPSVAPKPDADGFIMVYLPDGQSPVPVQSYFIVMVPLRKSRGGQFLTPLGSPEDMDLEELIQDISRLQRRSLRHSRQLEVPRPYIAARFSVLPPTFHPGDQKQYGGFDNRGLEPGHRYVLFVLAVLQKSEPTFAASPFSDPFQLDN


Assays:
[1] = target: T1, C-terminally 6xHis tagged mouse PTPRS …; test: BLI
[2] = target: T3, WT human PTPRS (hPTPRS) isoform 1 with a C-terminal HA tag (human, UniProt Q13332); test: co-IP; RIPA lysates of HEK293T cells overexpressing HA-tagged full length or truncated hPTPRS incubated with the antibody for 2 h at 4 °C, Protein G Sepharose, anti-HA blot; settings: one partner purified
T3 construct: human PTPRS isoform 1, open reading frame in pcDNA3.1 (+); also called PTPRS-HA; hPTPRS-HA; source: HEK293T, transfected; in RIPA lysate (immunoprecipitation), on or in cells (flow cytometry, PLA); not shown: HA, C-terminal, kept
T3 sequence (Q13332 30-1948): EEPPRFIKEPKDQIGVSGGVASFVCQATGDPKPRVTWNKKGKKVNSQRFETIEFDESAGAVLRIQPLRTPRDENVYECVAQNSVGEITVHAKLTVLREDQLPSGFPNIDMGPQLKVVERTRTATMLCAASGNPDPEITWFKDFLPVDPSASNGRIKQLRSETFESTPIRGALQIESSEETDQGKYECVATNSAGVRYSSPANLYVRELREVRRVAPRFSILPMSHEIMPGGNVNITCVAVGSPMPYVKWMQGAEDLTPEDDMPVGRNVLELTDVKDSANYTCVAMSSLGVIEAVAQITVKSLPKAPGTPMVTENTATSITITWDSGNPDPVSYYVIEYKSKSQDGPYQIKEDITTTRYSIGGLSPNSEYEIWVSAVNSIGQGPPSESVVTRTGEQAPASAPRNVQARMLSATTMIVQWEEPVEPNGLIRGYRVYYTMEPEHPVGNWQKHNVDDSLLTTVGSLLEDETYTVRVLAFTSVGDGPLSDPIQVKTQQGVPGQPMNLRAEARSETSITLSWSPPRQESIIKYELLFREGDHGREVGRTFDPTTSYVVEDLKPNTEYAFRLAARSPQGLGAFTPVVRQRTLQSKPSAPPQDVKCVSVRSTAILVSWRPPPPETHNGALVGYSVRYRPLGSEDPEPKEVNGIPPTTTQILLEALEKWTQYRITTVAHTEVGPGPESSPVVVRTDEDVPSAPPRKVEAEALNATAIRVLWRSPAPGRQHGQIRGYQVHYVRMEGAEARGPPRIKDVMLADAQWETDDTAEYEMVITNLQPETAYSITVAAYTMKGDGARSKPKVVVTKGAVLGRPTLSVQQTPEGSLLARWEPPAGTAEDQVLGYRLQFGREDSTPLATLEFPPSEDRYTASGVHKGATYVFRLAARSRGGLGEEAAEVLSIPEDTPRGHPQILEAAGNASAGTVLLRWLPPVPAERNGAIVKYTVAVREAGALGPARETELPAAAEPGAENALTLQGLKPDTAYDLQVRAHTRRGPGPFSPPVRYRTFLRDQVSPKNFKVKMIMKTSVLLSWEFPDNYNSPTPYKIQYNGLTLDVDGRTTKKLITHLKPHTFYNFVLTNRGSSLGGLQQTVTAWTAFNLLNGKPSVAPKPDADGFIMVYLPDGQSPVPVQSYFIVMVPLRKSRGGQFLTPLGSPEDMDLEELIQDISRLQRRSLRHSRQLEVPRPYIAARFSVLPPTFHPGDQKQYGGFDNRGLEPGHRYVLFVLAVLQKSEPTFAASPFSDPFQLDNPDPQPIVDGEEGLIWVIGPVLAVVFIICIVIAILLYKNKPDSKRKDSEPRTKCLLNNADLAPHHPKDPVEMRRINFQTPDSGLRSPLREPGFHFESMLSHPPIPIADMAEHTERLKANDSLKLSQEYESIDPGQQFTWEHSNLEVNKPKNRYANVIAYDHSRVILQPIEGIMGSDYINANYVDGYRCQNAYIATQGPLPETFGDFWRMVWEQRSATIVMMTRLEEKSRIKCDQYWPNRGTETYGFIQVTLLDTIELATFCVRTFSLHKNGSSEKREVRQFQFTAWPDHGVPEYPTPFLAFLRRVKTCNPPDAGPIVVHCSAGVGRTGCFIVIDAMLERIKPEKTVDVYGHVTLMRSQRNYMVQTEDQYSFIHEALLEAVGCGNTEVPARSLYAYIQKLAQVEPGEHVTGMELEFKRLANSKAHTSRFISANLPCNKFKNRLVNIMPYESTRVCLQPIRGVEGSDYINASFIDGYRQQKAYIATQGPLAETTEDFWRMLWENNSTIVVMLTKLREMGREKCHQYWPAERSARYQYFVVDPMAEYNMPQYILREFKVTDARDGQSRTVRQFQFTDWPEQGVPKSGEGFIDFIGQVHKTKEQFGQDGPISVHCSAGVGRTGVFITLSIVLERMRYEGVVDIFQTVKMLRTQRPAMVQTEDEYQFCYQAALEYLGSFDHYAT

[3] = target: T4, PTPRS^Δ326 (hPTPRS-HA N-terminal truncation lacking Ig-like domains 1 to 3) (Homo sapiens, UniProt Q13332, point mutant); test: as above; settings: one partner purified
T4 construct: human PTPRS isoform 1, N-terminal truncation lacking Ig-like domains 1 to 3, obtained from WT hPTPRS-HA by site-directed mutagenesis; source: HEK293T, transfected, in RIPA lysate; not shown: HA, C-terminal, kept

[4] = target: T5, PTPRS^Δ1096 (hPTPRS-HA N-terminal truncation lacking the ECD including most of Fn8) (Homo sapiens, UniProt Q13332, point mutant); test: as above; settings: one partner purified
T5 construct: human PTPRS isoform 1, N-terminal truncation lacking the ECD including most of Fn8, obtained from WT hPTPRS-HA by site-directed mutagenesis; source: HEK293T, transfected, in RIPA lysate; not shown: HA, C-terminal, kept

[5] = target: T6, C-terminally 6xHis tagged mouse PTPRS (mPTPRS) ECD (Mus musculus, UniProt B0V2N1); test: BLI; His-tagged ligand (mPTPRS ECD or hPTPRS Fn9) immobilised on anti-6xHis probes at 100 to 200 nM; antibodies or scFv-Fc fusions as analytes; Gator K buffer (0.02% BSA, 0.002% Tween-20 in PBS, pH 7.4), 37 °C; biphasic (2:1) association model; settings: both partners purified
T6 construct: also called mPTPRS ectodomain; PTPRS ectodomain; source: HEK293T, transiently transfected, supernatant; purified (Ni-NTA, HiTrap heparin); not shown: His6, C-terminal, kept

[6] = target: T1, C-terminally 6xHis tagged mouse PTPRS …; test: BLI
[7] = target: T2, 6xHis-tagged hPTPRS Fn9 (residues …); test: BLI
[8] = target: T2, 6xHis-tagged hPTPRS Fn9 (residues …); test: BLI
[9] = target: T3, WT human PTPRS (hPTPRS) isoform 1 with …; test: proximity ligation; purified antibody, scFv-Fc or Fc decoy added for 30 min to the co-transfected HEK293T cells before the PLA; read-out is the loss of the PLA signal of the tagged pair; settings: one partner purified
[10] = target: T7, 6xHis-tagged hPTPRS Fn9 (residues 1117-1270) (Homo sapiens, UniProt Q13332); test: BLI; His-tagged ligand (mPTPRS ECD or hPTPRS Fn9) immobilised on anti-6xHis probes at 100 to 200 nM; antibodies or scFv-Fc fusions as analytes; Gator K buffer (0.02% BSA, 0.002% Tween-20 in PBS, pH 7.4), 37 °C; biphasic (2:1) association model; settings: both partners purified
T7 construct: human PTPRS isoform 1 (Q13332), fibronectin type III-like domain 9, residues 1117-1270, amplified from WT hPTPRS and subcloned into pHLsec; the printed primers encode a start at TAFNLLN and an end at PFQLDN (translated from the primers); also called hPTPRS Fn9His; Fn9 fragment of PTPRS; source: HEK293T, transiently transfected, supernatant

[11] = target: T1, C-terminally 6xHis tagged mouse PTPRS …; test: BLI
[12] = target: T1, C-terminally 6xHis tagged mouse PTPRS …; test: SPR
[13] = target: T3, WT human PTPRS (hPTPRS) isoform 1 with …; test: flow cytometry on cells; HEK293T cells transfected with hPTPRS-HA (WT or Fn9mut) or empty vector, incubated 1 h with the antibody, AF568-labelled anti-mouse IgG; settings: one partner purified
[14] = target: T6, C-terminally 6xHis tagged mouse PTPRS …; test: SPR; Octet SF3; anti-PTPRS Ab immobilised by amine coupling on a PCH sensor chip; analyte mPTPRS ECD 2500 nM to 9.77 nM; 1x PBS with 0.005% Tween-20; multi-cycle kinetics; settings: both partners purified

koff [1]	binding result [3]	binding result [4]	Kd [5]	Kd [7]	koff [8]	Binder	also measured
0.005 s⁻¹	binds	binds	25.7 ± 9.66 nM	–	–	49F2 (mouse monoclonal antibody, IgG1/κ) (antibody, V domains shown, VH of 49F2; constant region of the mouse IgG1 heavy chain; VL of 49F2; constant region of the mouse κ light chain; IgG1/κ; source: production contracted to Viva Biotech) VH: EVQLVESGGDLVKPGGSLKLSCAASGFIFSSYGMSWVRQTPDKRLEWVATISSGGSDTYYPDSVKGRFTISRDNANNTLYLQMSSLKSEDTAMYYCARQVYYGLYWYFDVWGAGTTVTVSS VL: DIVMTQSHKFMSTSVGDRVSIICKASQDVNTAVAWYQQKPGQSPKLLIYSASYRYTGVPDRFTGSGSGTDFTFTISSVQAEDLAIYYCQQHYSTPYTFGGGTKLEIK	binding result [2]: binds
–	–	–	38.2 nM	–	–	22H8^IgG2b (22H8 variable regions on mouse IgG2b/κ constant regions) (antibody, V domains shown, as the VH of m3 (22H8); constant region of the mouse IgG2b heavy chain (entire constant region swapped); as the VL of m3 (22H8); constant region of the mouse κ light chain; IgG2b/κ form of 22H8; source: production contracted to Viva Biotech) VH: QVQLQQSGAELARPGASVKLSCKASGYTFTSYWMQWVKQRPGQGLEWIGAIYPGDGDTRYTQKFKGKATLTADKSSSTAYMQLSSLASEDSAVYYCARRIYYGYYYAMDYWGQGTSVTVSS VL: DIVLTQSPASLAVSLGQRATISCKASQSVDYDGDSYMNWYQQKPGQPPKLLIYAASNLESGIPARFSGSGSGTDFTLNIHPVEEEDAATYYCQQSNEDPLTFGAGTKLELK	koff [6]: 0.06 s⁻¹
–	–	–	–	2.65 nM	0.0056 s⁻¹	22H8^HL-scFv-Fc (VH-linker-VL scFv of 22H8 fused to human IgG1 Fc) (scFv, V domains shown, as the VH of m3 (22H8); linker between VH and VL; as the VL of m3 (22H8); ORF synthesized by Genscript and subcloned into pHLsec as a C-terminal hFc fusion; also called 22H8-Fc HL; source: HEK293T, transiently transfected, supernatant; purified (Protein A); not shown: Fc (human IgG1), C-terminal, kept) VH: QVQLQQSGAELARPGASVKLSCKASGYTFTSYWMQWVKQRPGQGLEWIGAIYPGDGDTRYTQKFKGKATLTADKSSSTAYMQLSSLASEDSAVYYCARRIYYGYYYAMDYWGQGTSVTVSS VL: DIVLTQSPASLAVSLGQRATISCKASQSVDYDGDSYMNWYQQKPGQPPKLLIYAASNLESGIPARFSGSGSGTDFTLNIHPVEEEDAATYYCQQSNEDPLTFGAGTKLELK	binding result [9]: binds; binding result [10]: binds
0.002 s⁻¹	binds	binds	13.2 ± 3.74 nM	17.6 nM	0.009 s⁻¹	22H8 (mouse monoclonal antibody, IgG1/κ) (antibody, V domains shown, VH of 22H8; constant region of the mouse IgG1 heavy chain; VL of 22H8; constant region of the mouse κ light chain; IgG1/κ; source: production contracted to Viva Biotech) VH: QVQLQQSGAELARPGASVKLSCKASGYTFTSYWMQWVKQRPGQGLEWIGAIYPGDGDTRYTQKFKGKATLTADKSSSTAYMQLSSLASEDSAVYYCARRIYYGYYYAMDYWGQGTSVTVSS VL: DIVLTQSPASLAVSLGQRATISCKASQSVDYDGDSYMNWYQQKPGQPPKLLIYAASNLESGIPARFSGSGSGTDFTLNIHPVEEEDAATYYCQQSNEDPLTFGAGTKLELK	binding result [2]: binds; binding result [10]: binds
–	–	–	–	–	–	13G5^IgG1 (13G5 variable regions on mouse IgG1/κ constant regions) (antibody, V domains shown) VH: EVKLVESGGGLVQPGGSLKLSCATSGFTFSDYYMYWVRQTPEKRLEWVAYISNGGGSTYYPDTVKGRFTISRDNAKNTLYLQMSRLKSEDTAMYYCARHVYYGRNYAMDYWGQGTSVTVSS VL: DIQMTQTTSSLSASLGDRVTISCRASQDISNYLNWYQQKPDGTVKLLIYYTSRLHSGVPSRFSGSGSGTDYSLTISNLEQEDIATYFCQQGNTLPYTFGGGTKLEIK	Kd [11]: 16.5 nM; koff [6]: 0.003 s⁻¹
0.083 s⁻¹	binds	binds	122 ± 1.9 nM	6.03 nM	0.003 s⁻¹	13G5 (mouse monoclonal antibody, IgG2b/κ) (antibody, V domains shown, VH of 13G5; constant region of the mouse IgG2b heavy chain; VL of 13G5; constant region of the mouse κ light chain; IgG2b/κ; also called anti-PTPRS Ab 13G5; source: production contracted to Viva Biotech) VH: EVKLVESGGGLVQPGGSLKLSCATSGFTFSDYYMYWVRQTPEKRLEWVAYISNGGGSTYYPDTVKGRFTISRDNAKNTLYLQMSRLKSEDTAMYYCARHVYYGRNYAMDYWGQGTSVTVSS VL: DIQMTQTTSSLSASLGDRVTISCRASQDISNYLNWYQQKPDGTVKLLIYYTSRLHSGVPSRFSGSGSGTDYSLTISNLEQEDIATYFCQQGNTLPYTFGGGTKLEIK	koff [12]: 0.00079 s⁻¹; mean fluorescence relative to 22H8 [13]: ~2 fold; Kd [14]: 95 nM
–	–	–	–	0.28 nM	0.00016 s⁻¹	13G5^HL-scFv-Fc (VH-linker-VL scFv of 13G5 fused to human IgG1 Fc) (scFv, V domains shown) VH: EVKLVESGGGLVQPGGSLKLSCATSGFTFSDYYMYWVRQTPEKRLEWVAYISNGGGSTYYPDTVKGRFTISRDNAKNTLYLQMSRLKSEDTAMYYCARHVYYGRNYAMDYWGQGTSVTVSS VL: DIQMTQTTSSLSASLGDRVTISCRASQDISNYLNWYQQKPDGTVKLLIYYTSRLHSGVPSRFSGSGSGTDYSLTISNLEQEDIATYFCQQGNTLPYTFGGGTKLEIK	–
